Molecular target: human B7H3 ECD-His (human) (UniProt Q5ZPR3)
Test: ForteBio BLI, antibody on AHQ sensor, 60 nM antigen, 1:1 model

Q: With Enoblituzumab (antibody) as the substance, how does the Kd read?
A: 773 pM

Reference: patent US20250011430A1
